Data from article PMC11215335 (The Journal of Biological Chemistry, 2024).

Key:
Assay in all cases: ELISA; polyreactivity assay, second experiment (Fig. 3D): antigen coated at constant concentration (proteins 5 ug/ml, bicarbonate buffer pH 9.6); mAb, Fab or scFv serially diluted two-fold from 34 nM Fv; 1 h at 37 C; alkaline phosphatase-conjugated secondary antibody; 'saturating Ag conditions'
Conditions in all cases: both partners purified
actin = actin (Bos taurus (muscle actin, assumed from …, UniProt P68138))
tubulin = target: T1, tubulin (Sus scrofa (brain tubulin, assumed from …, UniProt P02550;P02554))
T1 construct: tubulin alpha chain; Cytoskeleton T240-A; tubulin beta chain; As I recall, this catalogue item is tubulin purified from porcine brain (a mix of isotypes); source: bought: Cytoskeleton, Inc (T240-A)

thyroglobulin = target: T2, thyroglobulin (Bos taurus (assumed from catalogue item …, UniProt P01267))
T2 construct: thyroglobulin, Sigma T1001; As I recall, this catalogue item is thyroglobulin from bovine thyroid; source: bought: Sigma (T1001)

Measured: binding result

T2 sequence (P01267 20-2769): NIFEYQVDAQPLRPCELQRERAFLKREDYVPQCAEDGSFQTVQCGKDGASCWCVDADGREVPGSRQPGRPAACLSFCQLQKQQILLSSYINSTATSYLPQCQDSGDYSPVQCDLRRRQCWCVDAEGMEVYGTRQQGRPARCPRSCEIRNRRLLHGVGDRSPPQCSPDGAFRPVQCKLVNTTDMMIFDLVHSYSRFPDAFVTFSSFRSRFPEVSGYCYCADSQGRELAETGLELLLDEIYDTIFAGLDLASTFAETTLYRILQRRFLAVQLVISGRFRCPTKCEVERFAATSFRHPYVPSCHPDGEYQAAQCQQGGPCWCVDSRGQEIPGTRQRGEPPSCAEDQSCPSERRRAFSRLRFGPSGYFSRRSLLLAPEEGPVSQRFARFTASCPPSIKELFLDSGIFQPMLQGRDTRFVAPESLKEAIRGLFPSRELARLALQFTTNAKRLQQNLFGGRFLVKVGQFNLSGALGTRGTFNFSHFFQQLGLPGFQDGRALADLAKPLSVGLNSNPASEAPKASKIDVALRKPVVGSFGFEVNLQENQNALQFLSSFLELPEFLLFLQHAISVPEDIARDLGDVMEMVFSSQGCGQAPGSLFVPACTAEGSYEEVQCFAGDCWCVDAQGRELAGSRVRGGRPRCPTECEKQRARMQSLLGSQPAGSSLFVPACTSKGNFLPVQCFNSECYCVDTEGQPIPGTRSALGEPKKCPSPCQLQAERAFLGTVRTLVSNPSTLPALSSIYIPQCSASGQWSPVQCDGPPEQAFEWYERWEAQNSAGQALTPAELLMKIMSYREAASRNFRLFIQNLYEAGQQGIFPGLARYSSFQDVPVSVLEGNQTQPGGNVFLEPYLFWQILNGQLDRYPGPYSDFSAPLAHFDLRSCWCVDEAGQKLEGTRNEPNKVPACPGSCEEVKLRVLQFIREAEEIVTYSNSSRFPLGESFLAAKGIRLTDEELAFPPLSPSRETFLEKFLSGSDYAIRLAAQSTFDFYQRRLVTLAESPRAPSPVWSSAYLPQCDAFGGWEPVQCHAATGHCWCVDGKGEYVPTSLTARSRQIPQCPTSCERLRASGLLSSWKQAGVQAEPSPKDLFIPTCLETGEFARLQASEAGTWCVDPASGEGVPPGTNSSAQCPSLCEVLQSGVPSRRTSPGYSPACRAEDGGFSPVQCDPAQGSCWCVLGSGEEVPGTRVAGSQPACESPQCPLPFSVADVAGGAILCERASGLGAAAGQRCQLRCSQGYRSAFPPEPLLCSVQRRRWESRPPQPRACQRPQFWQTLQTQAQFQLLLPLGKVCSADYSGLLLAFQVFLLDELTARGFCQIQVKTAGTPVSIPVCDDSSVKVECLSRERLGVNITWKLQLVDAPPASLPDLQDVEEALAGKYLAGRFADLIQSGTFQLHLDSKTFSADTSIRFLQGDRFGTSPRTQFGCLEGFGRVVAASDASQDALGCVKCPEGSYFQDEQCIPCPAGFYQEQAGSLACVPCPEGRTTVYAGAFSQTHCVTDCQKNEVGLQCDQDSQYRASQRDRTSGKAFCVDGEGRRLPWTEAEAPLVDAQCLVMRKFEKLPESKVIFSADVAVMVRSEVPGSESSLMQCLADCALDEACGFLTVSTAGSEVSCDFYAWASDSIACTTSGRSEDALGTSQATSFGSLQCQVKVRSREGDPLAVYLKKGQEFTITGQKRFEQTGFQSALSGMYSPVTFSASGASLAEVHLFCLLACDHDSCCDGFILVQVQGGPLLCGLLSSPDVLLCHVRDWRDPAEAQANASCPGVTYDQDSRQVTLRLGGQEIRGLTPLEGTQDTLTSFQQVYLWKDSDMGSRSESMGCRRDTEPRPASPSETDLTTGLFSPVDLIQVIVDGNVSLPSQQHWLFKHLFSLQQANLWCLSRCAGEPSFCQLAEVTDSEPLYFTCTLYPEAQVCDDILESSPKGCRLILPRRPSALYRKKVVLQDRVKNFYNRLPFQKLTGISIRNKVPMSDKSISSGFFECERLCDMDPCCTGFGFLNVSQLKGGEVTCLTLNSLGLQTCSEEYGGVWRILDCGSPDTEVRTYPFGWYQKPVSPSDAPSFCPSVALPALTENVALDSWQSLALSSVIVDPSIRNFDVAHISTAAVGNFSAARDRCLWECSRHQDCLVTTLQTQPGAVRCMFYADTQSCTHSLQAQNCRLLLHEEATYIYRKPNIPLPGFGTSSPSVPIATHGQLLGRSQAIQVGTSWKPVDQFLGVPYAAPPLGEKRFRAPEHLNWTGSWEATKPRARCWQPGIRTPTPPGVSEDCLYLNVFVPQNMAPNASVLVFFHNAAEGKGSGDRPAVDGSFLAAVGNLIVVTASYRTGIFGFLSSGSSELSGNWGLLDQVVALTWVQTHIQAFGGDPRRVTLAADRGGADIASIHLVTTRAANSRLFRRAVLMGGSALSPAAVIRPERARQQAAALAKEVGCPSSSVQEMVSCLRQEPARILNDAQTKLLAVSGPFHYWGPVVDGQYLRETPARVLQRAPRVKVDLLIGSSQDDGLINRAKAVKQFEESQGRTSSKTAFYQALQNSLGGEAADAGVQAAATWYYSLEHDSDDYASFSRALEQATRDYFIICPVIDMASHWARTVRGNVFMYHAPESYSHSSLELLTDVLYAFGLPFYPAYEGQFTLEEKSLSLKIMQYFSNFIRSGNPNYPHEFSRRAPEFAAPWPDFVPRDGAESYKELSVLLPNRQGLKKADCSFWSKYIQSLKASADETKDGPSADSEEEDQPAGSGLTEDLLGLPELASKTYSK
T1 sequence (P02554 whole entry, looked up, chain 1 of 2): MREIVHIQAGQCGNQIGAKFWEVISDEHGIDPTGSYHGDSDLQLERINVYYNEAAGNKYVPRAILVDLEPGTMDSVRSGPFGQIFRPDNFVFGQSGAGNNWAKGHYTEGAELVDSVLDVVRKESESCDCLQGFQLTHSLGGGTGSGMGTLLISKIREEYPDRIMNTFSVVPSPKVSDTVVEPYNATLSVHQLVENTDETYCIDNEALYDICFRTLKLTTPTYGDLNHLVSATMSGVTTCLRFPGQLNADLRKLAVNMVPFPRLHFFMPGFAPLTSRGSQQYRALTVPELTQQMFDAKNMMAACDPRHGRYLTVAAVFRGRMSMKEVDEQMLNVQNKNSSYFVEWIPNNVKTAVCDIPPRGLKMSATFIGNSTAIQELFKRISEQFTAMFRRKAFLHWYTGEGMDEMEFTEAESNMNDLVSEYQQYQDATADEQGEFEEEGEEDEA
T1 sequence (P02550 whole entry, looked up, chain 2 of 2): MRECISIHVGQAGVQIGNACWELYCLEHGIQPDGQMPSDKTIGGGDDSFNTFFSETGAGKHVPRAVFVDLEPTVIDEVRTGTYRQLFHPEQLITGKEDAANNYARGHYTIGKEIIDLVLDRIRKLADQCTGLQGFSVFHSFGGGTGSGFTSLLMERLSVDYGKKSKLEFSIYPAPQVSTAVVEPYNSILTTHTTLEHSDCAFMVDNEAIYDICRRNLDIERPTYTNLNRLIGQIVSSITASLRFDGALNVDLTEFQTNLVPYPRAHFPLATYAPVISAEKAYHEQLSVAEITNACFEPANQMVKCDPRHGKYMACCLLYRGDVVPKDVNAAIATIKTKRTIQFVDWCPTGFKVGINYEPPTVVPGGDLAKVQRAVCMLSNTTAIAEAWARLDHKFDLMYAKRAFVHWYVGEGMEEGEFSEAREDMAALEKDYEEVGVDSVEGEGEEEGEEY

B1: single-chain Fv antibody fragment 18B7 (scFv, V domains shown)
VH: DVKLVESGGGLVKLGGSLKLSCVASGFTCSSYFMSWVRQTPEKRLELVAMINNNGDKTYYPDTVKGRFTISRDNAKNTLYLQMSSLKSEDTAMYYCARRDGTFGNHFDYWGQGTTLTVSS
VL: DVVMTQTPLSLPVSAGDQASISCRSSQSLCHSNGNTYLHWYLQKPGQSPKLLIYKVSNRFSGVPDKFSGSGSGTDFTLKISRVEAEDLGVYFCSQSTHVPWTFGGGTKLEIK
notes: VL of mAb 18B7; 15-residue linker, printed as (GGS)5 in the methods; the results call it (Gly4Ser)3; VH of mAb 18B7; A pelB leader was appended to the N-terminus; The tandem FLAG and His6 tags are at the C-terminus; also called scFv 18B7; scFv; source: E. coli BL21 STAR (pET22b+); also soluble in the periplasm; not shown: His6, C-terminal, kept
binds: all assays above
